Laboratory results taken from publication PMC4689412.

Target: AP-1 clathrin adaptor complex (UniProt O43747)
Assay: GST pull-down, Western blot with anti-γ-adaptin, densitometry
Conditions: HeLa cell lysates; GST-fusions immobilized on GSH-sepharose beads; parent: est. 100; read off a plot

Sequence of UniProt O43747 (O43747 whole entry, looked up, one chain of several): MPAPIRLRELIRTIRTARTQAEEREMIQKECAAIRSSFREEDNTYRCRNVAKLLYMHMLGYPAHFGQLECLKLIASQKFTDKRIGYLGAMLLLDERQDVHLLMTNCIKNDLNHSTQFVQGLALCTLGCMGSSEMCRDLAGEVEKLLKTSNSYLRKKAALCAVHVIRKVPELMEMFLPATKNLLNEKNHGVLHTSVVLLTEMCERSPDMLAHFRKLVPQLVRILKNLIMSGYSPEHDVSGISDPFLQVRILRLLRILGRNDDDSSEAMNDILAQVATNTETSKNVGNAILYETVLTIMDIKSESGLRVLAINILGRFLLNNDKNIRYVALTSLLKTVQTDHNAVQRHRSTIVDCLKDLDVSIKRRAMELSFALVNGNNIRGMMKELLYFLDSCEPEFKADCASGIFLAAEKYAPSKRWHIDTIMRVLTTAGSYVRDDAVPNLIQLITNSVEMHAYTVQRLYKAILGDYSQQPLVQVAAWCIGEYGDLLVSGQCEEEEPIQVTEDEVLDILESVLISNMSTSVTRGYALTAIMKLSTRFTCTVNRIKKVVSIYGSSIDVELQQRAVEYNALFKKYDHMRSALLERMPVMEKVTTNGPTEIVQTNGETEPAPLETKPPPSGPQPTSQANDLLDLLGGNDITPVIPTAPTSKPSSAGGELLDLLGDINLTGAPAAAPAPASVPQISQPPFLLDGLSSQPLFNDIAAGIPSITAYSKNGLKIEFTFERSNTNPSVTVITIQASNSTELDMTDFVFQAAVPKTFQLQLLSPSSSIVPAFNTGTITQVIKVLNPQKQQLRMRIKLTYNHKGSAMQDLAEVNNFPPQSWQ

Question: Which percent of parent does the source give for “GST-Nef, wild-type HIV-1 NL4.3 Nef fused to glutathione-S-transferase L164A; L165A” here?
Answer: 17 % of control

Question: Which percent of parent does the source give for “GST-Nef, wild-type HIV-1 NL4.3 Nef fused to glutathione-S-transferase P129A; G130A” here?
Answer: 74 % of control

Question: With “GST-Nef, wild-type HIV-1 NL4.3 Nef fused to glutathione-S-transferase P131A; G132A” as the substance, how does the percent of parent read?
Answer: 75 % of control
